Data on 1 substance can be found in patent US20210283258A1.

In this assay the target is HER2 receptor (human) (UniProt P04626). As to the kind of experiment: cell-based or functional assay. Particulars: scale: % greater uptake compared to the non-targeted nanoparticle.

Regarding “Herceptin®-PEG-nitroPBA targeted MAP-CPT nanoparticle (antibody)”, the cellular uptake in BT-474 cell line (CPT fluorescence of cell lysate, 30 min at 37° C.) was 70.
